Measurements taken from the supplement of paper PMC9112550, “Optimization of the antimicrobial peptide Bac7 by deep mutational scanning” (BMC Biology, 2022).

System: Escherichia coli TOP10
Assay: shrunken log2 fold change of peptide-encoding DNA abundance (4.5 h post-induction vs induction); higher = less antimicrobial activity (less host growth inhibition)
Conditions: time post-induction: 4.5 h; library: site-saturation at positions 5, 18, 19, 20
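Further: peptides expressed intracellularly from a pBAD plasmid library in pooled LB shake-flask culture, induced with 0.3% L-arabinose, DNA abundance read by NGS, three biological replicates, DESeq2 with apeglm shrinkage.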

Sequence | shrunken log2 fold change
RRIRCRPPRLPRPRPRPCFFPRP | 0.392
RRIRQRPPRLPRPRPRPNCCPRP | 0.0381
RRIRNRPPRLPRPRPRPPTPPRP | 0.56
RRIRGRPPRLPRPRPRPTAEPRP | 3.04
RRIRHRPPRLPRPRPRPASFPRP | -0.215
RRIRMRPPRLPRPRPRPHKQPRP | 0.0796
RRIRQRPPRLPRPRPRPHEVPRP | -0.0426
RRIRCRPPRLPRPRPRPSREPRP | -0.184
RRIRTRPPRLPRPRPRPPLAPRP | 0.65
RRIRVRPPRLPRPRPRPPQDPRP | 0.27
RRIRLRPPRLPRPRPRPYTVPRP | -0.121
RRIRPRPPRLPRPRPRPNEKPRP | 0.023
RRIRERPPRLPRPRPRPGIVPRP | -0.113
RRIRVRPPRLPRPRPRPKHGPRP | -0.0119
RRIRPRPPRLPRPRPRPWVPPRP | -0.228
RRIRWRPPRLPRPRPRPWWGPRP | 0.0568
RRIRTRPPRLPRPRPRPGSPPRP | 0.0989
RRIRDRPPRLPRPRPRPDCRPRP | 0.249
RRIRFRPPRLPRPRPRPYWCPRP | -0.399
RRIRVRPPRLPRPRPRPDVFPRP | -0.0779
RRIRDRPPRLPRPRPRPTYHPRP | -0.0146
RRIRDRPPRLPRPRPRPAFSPRP | -0.0405
RRIRDRPPRLPRPRPRPGMGPRP | 0.645
RRIRDRPPRLPRPRPRPQFSPRP | 0.0361
RRIRGRPPRLPRPRPRPAHFPRP | 0.238

Sequence | shrunken log2 fold change
RRIRCRPPRLPRPRPRPATKPRP | 0.0383
RRIRWRPPRLPRPRPRPDTMPRP | 0.19
RRIRTRPPRLPRPRPRPTWPPRP | 0.439
RRIRVRPPRLPRPRPRPCVWPRP | -0.0237
RRIRGRPPRLPRPRPRPKLHPRP | 0.64
RRIRIRPPRLPRPRPRPPRQPRP | 0.337
RRIRSRPPRLPRPRPRPSMNPRP | -0.454
RRIRSRPPRLPRPRPRPASQPRP | 0.0365
RRIRSRPPRLPRPRPRPECNPRP | 0.218
RRIRERPPRLPRPRPRPGGYPRP | -0.563
RRIRFRPPRLPRPRPRPTFVPRP | -0.051
RRIRARPPRLPRPRPRPPKEPRP | 0.818
RRIRYRPPRLPRPRPRPRWAPRP | -0.0106
RRIRPRPPRLPRPRPRPHCAPRP | 0.228
RRIRERPPRLPRPRPRPKPWPRP | 0.287
RRIRDRPPRLPRPRPRPQCNPRP | -0.0196
RRIRNRPPRLPRPRPRPMPFPRP | 0.00489
RRIRCRPPRLPRPRPRPQAEPRP | 0.215
RRIRDRPPRLPRPRPRPDRWPRP | 0.366
RRIRKRPPRLPRPRPRPMFMPRP | -0.116
RRIRKRPPRLPRPRPRPTKEPRP | 1.6
RRIRIRPPRLPRPRPRPQHKPRP | -0.621
RRIRARPPRLPRPRPRPGMHPRP | 0.233
RRIRTRPPRLPRPRPRPKQVPRP | -0.0584
RRIRPRPPRLPRPRPRPLQLPRP | -0.0598

Sequence | shrunken log2 fold change
RRIRCRPPRLPRPRPRPQDCPRP | -0.241
RRIRDRPPRLPRPRPRPNKSPRP | -0.534
RRIRQRPPRLPRPRPRPMKWPRP | 0.273
RRIRNRPPRLPRPRPRPYAFPRP | 0.0147
RRIRCRPPRLPRPRPRPFNTPRP | -0.2
RRIRARPPRLPRPRPRPLKWPRP | 0.218
RRIRWRPPRLPRPRPRPYSWPRP | -0.128
RRIRHRPPRLPRPRPRPACKPRP | -0.164
RRIRQRPPRLPRPRPRPQDKPRP | -0.802
RRIRDRPPRLPRPRPRPRQEPRP | 0.0935
RRIRARPPRLPRPRPRPPMMPRP | 0.421
RRIRVRPPRLPRPRPRPIVAPRP | -0.00399
RRIRLRPPRLPRPRPRPRLVPRP | 0.0317
RRIRDRPPRLPRPRPRPPDCPRP | 0.077
RRIRYRPPRLPRPRPRPFGHPRP | -0.15
RRIRWRPPRLPRPRPRPIPIPRP | -0.12
RRIRIRPPRLPRPRPRPEASPRP | 0.144
RRIRCRPPRLPRPRPRPEVDPRP | 0.0462
RRIRARPPRLPRPRPRPCHKPRP | -0.259
RRIRPRPPRLPRPRPRPAIFPRP | -0.0302
RRIRWRPPRLPRPRPRPLLNPRP | 0.00531
RRIRDRPPRLPRPRPRPLQSPRP | -0.015
RRIRLRPPRLPRPRPRPTWPPRP | 0.705
RRIRCRPPRLPRPRPRPNEDPRP | 0.0261
RRIRDRPPRLPRPRPRPNCSPRP | 0.271

Sequence | shrunken log2 fold change
RRIRYRPPRLPRPRPRPHSDPRP | -0.0292
RRIRSRPPRLPRPRPRPYLIPRP | -0.363
RRIRYRPPRLPRPRPRPQYIPRP | 0.0111
RRIRERPPRLPRPRPRPSGIPRP | -0.272
RRIRWRPPRLPRPRPRPEQQPRP | 1.39
RRIRCRPPRLPRPRPRPIYWPRP | -0.815
RRIRPRPPRLPRPRPRPMRGPRP | 0.887
RRIRCRPPRLPRPRPRPSSAPRP | -0.278
RRIRIRPPRLPRPRPRPYMPPRP | -1.27
RRIRRRPPRLPRPRPRPDCRPRP | 0.0322
RRIRQRPPRLPRPRPRPTVYPRP | 0.079
RRIRKRPPRLPRPRPRPNIIPRP | 0.00713
RRIRLRPPRLPRPRPRPFVMPRP | -0.241
RRIRSRPPRLPRPRPRPLVNPRP | -0.138
RRIRTRPPRLPRPRPRPVCNPRP | -0.345
RRIRRRPPRLPRPRPRPIGGPRP | 0.205
RRIRVRPPRLPRPRPRPIIPPRP | -0.36
RRIRFRPPRLPRPRPRPTHNPRP | -0.18
RRIRERPPRLPRPRPRPDEWPRP | -0.215
RRIRLRPPRLPRPRPRPKRCPRP | -0.0395
RRIRQRPPRLPRPRPRPGWEPRP | -0.00991
RRIRHRPPRLPRPRPRPGESPRP | -0.0414
RRIRVRPPRLPRPRPRPKYSPRP | -0.122
RRIRLRPPRLPRPRPRPSSIPRP | -0.245
RRIRTRPPRLPRPRPRPQMDPRP | -0.195

Sequence | shrunken log2 fold change
RRIRCRPPRLPRPRPRPGNVPRP | -0.357
RRIRVRPPRLPRPRPRPDENPRP | -0.0618
RRIRNRPPRLPRPRPRPIFKPRP | -0.174
RRIRQRPPRLPRPRPRPDATPRP | 0.495
RRIRKRPPRLPRPRPRPISCPRP | 0.0993
RRIRQRPPRLPRPRPRPYHGPRP | -0.126
RRIRIRPPRLPRPRPRPIRDPRP | -0.0759
RRIRIRPPRLPRPRPRPQEHPRP | -0.0111
RRIRPRPPRLPRPRPRPKTAPRP | -0.109
RRIRFRPPRLPRPRPRPWCHPRP | 0.524
RRIRMRPPRLPRPRPRPTYGPRP | -0.00932
RRIRRRPPRLPRPRPRPHVRPRP | 0.0936
RRIRSRPPRLPRPRPRPRHAPRP | 0.39
RRIRNRPPRLPRPRPRPCMRPRP | 0.0891
RRIRKRPPRLPRPRPRPDFFPRP | 0.0109
RRIRMRPPRLPRPRPRPCFSPRP | -0.141
RRIRNRPPRLPRPRPRPEPFPRP | -0.0904
RRIRHRPPRLPRPRPRPMNVPRP | -0.0594
RRIRGRPPRLPRPRPRPGMKPRP | 0.484
RRIRMRPPRLPRPRPRPTWQPRP | 0.288
RRIRTRPPRLPRPRPRPINMPRP | -0.0135
RRIRARPPRLPRPRPRPLASPRP | 0.841
RRIRGRPPRLPRPRPRPQYGPRP | -0.008
RRIRKRPPRLPRPRPRPPKYPRP | -0.0749
RRIRIRPPRLPRPRPRPIVAPRP | -0.119

Sequence | shrunken log2 fold change
RRIRPRPPRLPRPRPRPINTPRP | -0.844
RRIRRRPPRLPRPRPRPPPIPRP | 0.978
RRIRWRPPRLPRPRPRPAVAPRP | 0.544
RRIRLRPPRLPRPRPRPLDAPRP | 0.112
RRIRFRPPRLPRPRPRPMGWPRP | 0.0642
RRIRWRPPRLPRPRPRPNQSPRP | -0.108
RRIRKRPPRLPRPRPRPIYTPRP | -0.0648
RRIRPRPPRLPRPRPRPAFKPRP | 0.192
RRIRTRPPRLPRPRPRPFHWPRP | 0.036
RRIRCRPPRLPRPRPRPHCGPRP | -0.156
RRIRLRPPRLPRPRPRPCHHPRP | -0.322
RRIRWRPPRLPRPRPRPMQCPRP | 0.0434
RRIRARPPRLPRPRPRPNCFPRP | 0.0761
RRIRKRPPRLPRPRPRPKKSPRP | 0.575
RRIRIRPPRLPRPRPRPWCNPRP | -0.33
RRIRTRPPRLPRPRPRPTWVPRP | 0.149
RRIRERPPRLPRPRPRPMHAPRP | 0.262
RRIRARPPRLPRPRPRPNIKPRP | -0.14
RRIRFRPPRLPRPRPRPPPMPRP | 1.17
RRIRKRPPRLPRPRPRPHDTPRP | -0.0804
RRIRRRPPRLPRPRPRPWKLPRP | -0.0807
RRIRCRPPRLPRPRPRPTNGPRP | -0.0378
RRIRHRPPRLPRPRPRPCWIPRP | -0.00991
RRIRCRPPRLPRPRPRPMLCPRP | 0.0786
RRIRARPPRLPRPRPRPESEPRP | 3.51
